Experimental data reported in article PMC7509637 (Advanced Science, 2020).
Several values for one entry are separate records, joined by “and”; a condition that tells them apart may be missing. Equal entries are not always repeated. Entries after “also recorded” stand apart in the source; their conditions may differ.

B1: FapCS: FapC seeds obtained by sonication of mature FapC fibrils (P. aeruginosa) (protein)
chain: GNEGGWHPPKPNPQSNNKGGATALVVDTQQNYNNKVSNFGTLNNASVSGSIKDASGNVGVNVAAGDNNQQANAAALASADASFVFGTATASTSVLQSGYGNTLNNYSNPNTASLSNSANNVSGNLGVNVAAGNFNQQKNDLAAAVSNGQYSTAGSAASQTSTGNTTVNSANYAYGGTYVSLKLNADGSYKGTSDQIGDVYLDTWEGQTHPGGSNTGHIDVDSQAQGAKDLNHDGGAFAFKEKGDVDLKGTVSGFIPAIVGFKTPVTNNASLSNSLQNVSGNVGVNIAAGGGNQQSNSLSIAAGCSSCPAGGESLGF

Legend:
Aβ = biological target: T1, Aβ (Homo sapiens, UniProt P05067); experiment: Circular dichroism spectroscopy, secondary structure; conditions: 37 °C, CD; for β-sheet content: Contin/reference set 4, n = 3; for random coil content: n = 3
T1 construct: purchased Anaspec Inc
Description: Solutions of 200 µL, at similar molar ratios as for ThT assay, were prepared and incubated at 37 °C. CD spectra for different samples at 0, 12 and 48 h were measured with a CD spectrophotometer (Jasco) from 190 to 240 nm (1 nm step size). The percentage secondary structure was calculated by the CD data via Dichroweb analysis with parameters of Contin/reference set 4.^[ ^95 ^]

adult zebrafish brain = experiment: IHC for Aβ deposition in brain of adult zebrafish; format: in vivo, zebrafish (AB, Danio rerio); conditions: two days postinjection (so in the source)
Description: (§1) Adult zebrafish (10 months) were employed for the study. Prior to microinjection, adult zebrafish were anesthetized by placing them in a beaker filled with ice‐chilled tricaine (0.01% in Holtfreter's buffer) for 20 s. […] The needle penetrated between left and right telencephalon for not more than 1 mm and injection volume was 1 µL. The syringe was washed with ethanol and PBS in between the injections. The injections were made under a stereomicroscope and fish were held in place with forceps. After microinjection, the fish was placed back in the water tank for recovery.
The head of the fish was separated at pectoral fin point with a sharp blade and fixed in paraformaldehyde as described in the “Animal husbandry and ethics statement” section. The fixed heads were dehydrated by dipping in gradual concentration of ethanol, i.e., 20%, 40%, 60%, 80%, and 100% with 10 min at each step. The heads were treated with 20% sucrose overnight, mounted with Tissue Trek OCT mounting medium at −20 °C. The heads were then sectioned into 20 × 10^−6 M thick section with a cryostat. The sections were mounted on a gelatinized glass slide and immunostained with antibodies. The sections were dried, washed thrice in PBS (pH 7.4), and TritonX‐100 (0.05% in PBS) for 5 min each. […] The sections were imaged by a fluorescence microscope and fluorescence intensities were measured from the images with Fiji ImageJ analysis.

Aβ amyloid fibrils = experiment: STED microscopy of FapCS with Aβ fibrils; conditions: FapCS labeled with Alexa 647, ThT-labeled Aβ fibrils, 12 h
Description: STED microscopy was employed to study the interaction of FapCS with Aβ. FapCS was labeled with Alexa 647 NHS ester via carbodiimide coupling reaction (1:1 molar ratio) in PBS (pH 8) for a duration of 5 h. The labeled fragments were purified via centrifugal filters ([…]). Labeled FapCS was incubated with Aβ at the same molar ratio as for the ThT assay. After 12 h of incubation, the FapCS‐seeded Aβ fibrils were incubated with ThT dye (100 × 10^−6 M) for 30 min to label the Aβ backbone and then purified via centrifugal filters ([…]). A drop of 20 µL of the sample was placed on a poly‐L‐lysine coated coverslip, flipped on a glass slide and then imaged under STED microscope. Alexa and ThT fluorescence were imaged under the excitations of 647 and 488 nm and emissions of 665 and 525 nm, respectively.

adult zebrafish = experiment: Cognitive memory function of adult zebrafish (arena 2 avoidance); format: in vivo, zebrafish (AB, Danio rerio); conditions: FapCS alone
Description: as §1
The behavioral pathology of the adult fish was observed after 4 d and 2 weeks of microinjection. The behavioral pathology of movement frequency and traveled distance was recorded with a zebrabox (Viewpoint) in a 1 L swimming tank. For cognitive function test, the tank was hypothetically divided into two parts of arena 1 and arena 2, and arena 2 was labeled by pasting a red paper at the bottom of the tank. The behavior of the untreated fish was recorded as positive control, in both arenas. […] After training, the swimming behavior of the fish was recorded in whole tank and then analyzed for arena 1 versus arena 2 with software EthnoVision X1.
The observations were made for 1 min with three fish per samples. […] Movement trajectories were also recorded with the instrument's camera.

Molecule	β-sheet content (Aβ; 0 h)	random coil content (Aβ; 0 h)	random coil content (Aβ; 12 h)	β-sheet content (Aβ; 48 h)	Aβ deposition in brain (in words) (adult zebrafish brain)	interaction with Aβ fibrils by STED (Aβ amyloid fibrils)	cognitive memory function (in words), time not stated (adult zebrafish)
amyloid beta [Aβ]	28% and 28 ± 9%	34 ± 6%	28 ± 1.5%	54% and 54 ± 4.5%	did not render any deposition in the fish brain		
B1						adsorption of FapCS (labeled with Alexa 647) onto Aβ amyloid fibrils; also recorded: intercalation of FapCS inside the Aβ fibrils; also recorded: adsorbed onto or integrated into Aβ fibrils	did not induce any cognitive deficiencies
